{
  "source": "paper PMC3961180",
  "about": "“The Kil Peptide of Bacteriophage λ Blocks Escherichia coli Cytokinesis via ZipA-Dependent Inhibition of FtsZ Assembly” (PLoS Genetics, 2014)",
  "molecular_target": "the molecule itself",
  "assay": "co-sedimentation; FtsZ 5 µM, His6-FLAG-Kil 10 µM, His6-tagged ZipAC domains 5 µM, GTP 1 mM in polymerization buffer; 1 mM CaCl2 for calcium-induced bundling; TLA 100.3 rotor at 70,000 rpm; supernatant and pellet on Coomassie-stained gels",
  "data": [
    {"protein": "E. coli FtsZ (natural protein, UniProt P0A9A6 1-383, looked up, cell division protein FtsZ, E. coli; expressed from pET11a-ftsZ (from H. Erickson); No tag is named for this construct; also called FtsZWT; source: E. coli BL21(DE3) pET11a-ftsZ (WM971), purified (successive 20% and 30% ammonium sulfate cuts)) MFEPMELTNDAVIKVIGVGGGGGNAVEHMVRERIEGVEFFAVNTDAQALRKTAVGQTIQIGSGITKGLGAGANPEVGRNAADEDRDALRAALEGADMVFIAAGMGGGTGTGAAPVVAEVAKDLGILTVAVVTKPFNFEGKKRMAFAEQGITELSKHVDSLITIPNDKLLKVLGRGISLLDAFGAANDVLKGAVQGIAELITRPGLMNVDFADVRTVMSEMGYAMMGSGVASGEDRAEEAAEMAISSPLLEDIDLSGARGVLVNITAGFDLRLDEFETVGNTIRAFASDNATVVIGTSLDPDMNDELRVTVVATGIGMDKRPEITLVTNKQVQQPVMDRYQQHGMAPLTQEQKPVAKVVNDNAPQTAKEPDYLDIPAFLRKQAD", "values": [
      {"measurement": "binding result", "result": "binds"}
    ]}
  ]
}
